Numbered stars: 1 amine (or outer) side, 2 acyl side, 3 side chain; on linkers, the order of the positions; unused ones are H or OH. Bridge positions count the residues as written; N and C are the ends. Square brackets hold non-standard residues; d marks the D form. Ends that are not written are not given here. TBMB = c1c(C[*:1])cc(C[*:3])cc1C[*:2]; 3Pal = N[C@@H](Cc1cccnc1)C(=O)O; 4Pal = N[C@@H](Cc1ccncc1)C(=O)O; Cha = N[C@@H](CC1CCCCC1)C(=O)O
Each binder was assayed against T1, biotinylated human plasma Kallikrein (human, UniProt P03952 20-638, biotinylated) (assay: phage binding assay).
T1 construct: also called Biotinylated hPK
Description: (§1) Library transformant colonies, or selection output colonies, were picked and grown as individual cultures in 2TY broth containing selective antibiotic. The picked colonies were DNA-sequenced using a QIAgen PyroMark Q96 DNA sequencer to reveal the amino-acid substitution present in each clone, and were assayed for human plasma Kallikrein binding as follows. The phage-containing supernatant was harvested from the culture and phage were cyclised with tris bromomethyl benzene(TBMB) based on the methods of Heinis et al (Nature Chemical Biology vol. 5 pp 502-507 (2009)). The purified phage from this process were assayed for binding to biotinylated human plasma Kallikrein using a homogeneous plate-based binding assay; assay read-out measured on a BMG Labtech Pherastar FS plate reader. The quantitative binding data from duplicate assay samples was averaged (mean) and expressed as signal:background. […] The assay data was correlated with the peptide sequences.
A library was constructed where positions 1, 6, 7, 8, 9 &10 of 06-34-03 were fixed and positions 2, 3, 4 & 5 were randomised (see 'Randomisation of peptide domains—Library construction' in Methods above). Selections against human plasma Kallikrein were performed at a variety of stringencies (see 'Phage selections' in Methods above). All output sequences were identified and analysed for target binding (see 'Randomisation of peptide domains—Assay of binding of individual clones' in Methods above). Table 17 lists each unique sequence, its relative abundance in the selection output (frequency), and a rank number according to target binding strength.

T1 sequence (P03952 20-638 limits assumed): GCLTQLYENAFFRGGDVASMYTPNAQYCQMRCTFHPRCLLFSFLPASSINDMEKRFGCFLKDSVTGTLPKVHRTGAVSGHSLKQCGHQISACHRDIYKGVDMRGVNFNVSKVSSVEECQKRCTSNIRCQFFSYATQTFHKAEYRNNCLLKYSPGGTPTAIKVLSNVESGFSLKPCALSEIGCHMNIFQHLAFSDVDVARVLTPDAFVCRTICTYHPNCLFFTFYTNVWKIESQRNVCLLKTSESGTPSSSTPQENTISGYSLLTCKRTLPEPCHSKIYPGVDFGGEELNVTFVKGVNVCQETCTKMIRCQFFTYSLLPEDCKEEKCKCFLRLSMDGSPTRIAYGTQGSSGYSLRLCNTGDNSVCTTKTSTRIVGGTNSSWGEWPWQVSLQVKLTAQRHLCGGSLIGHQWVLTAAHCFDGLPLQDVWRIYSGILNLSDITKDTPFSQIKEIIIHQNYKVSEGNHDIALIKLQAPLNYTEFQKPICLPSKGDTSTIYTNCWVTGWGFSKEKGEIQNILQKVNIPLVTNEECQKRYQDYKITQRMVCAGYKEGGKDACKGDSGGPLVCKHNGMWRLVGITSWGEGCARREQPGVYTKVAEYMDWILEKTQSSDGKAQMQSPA

| Binder | Rank (by Kallikrein binding) |
| --- | --- |
| CSWPARCTHQDLC (linker 1-7-13 via TBMB) [SEQ ID NO 73] | 1 |
| CSWLARCTHQDLC (linker 1-7-13 via TBMB) [SEQ ID NO 76] | 4 |
| CSWPFRCTHQDLC (linker 1-7-13 via TBMB) [SEQ ID NO 86] | 14 |
| CSWHARCTHQDLC (linker 1-7-13 via TBMB) [SEQ ID NO 96] | 24 |
| CSHPFRCTHQDLC (linker 1-7-13 via TBMB) [SEQ ID NO 81] | 9 |
| CSFPIRCTHQDLC (linker 1-7-13 via TBMB) [SEQ ID NO 87] | 15 |
| CSYPFRCTHQDLC (linker 1-7-13 via TBMB) [SEQ ID NO 93] | 21 |
| CRFPFKCTHQDLC (linker 1-7-13 via TBMB) [SEQ ID NO 83] | 11 |
| CSWQARCTHQDLC (linker 1-7-13 via TBMB) [SEQ ID NO 114] | 42 |
| CSFPWRCTHQDLC (linker 1-7-13 via TBMB) [SEQ ID NO 95] | 23 |
| CSFPYRCTHQDLC (linker 1-7-13 via TBMB) [SEQ ID NO 77] | 5 |
| CSWSARCTHQDLC (linker 1-7-13 via TBMB) [SEQ ID NO 91] | 19 |
| CSYPIRCTHQDLC (linker 1-7-13 via TBMB) [SEQ ID NO 90] | 18 |
| CSHPYRCTHQDLC (linker 1-7-13 via TBMB) [SEQ ID NO 80] | 8 |
| CSWAARCTHQDLC (linker 1-7-13 via TBMB) [SEQ ID NO 79] | 7 |
| CSFPFKCTHQDLC (linker 1-7-13 via TBMB) [SEQ ID NO 78] | 6 |
| CSWPYRCTHQDLC (linker 1-7-13 via TBMB) [SEQ ID NO 82] | 10 |
| CSWWARCTHQDLC (linker 1-7-13 via TBMB) [SEQ ID NO 99] | 27 |
| CSYPYRCTHQDLC (linker 1-7-13 via TBMB) [SEQ ID NO 98] | 26 |
| CSWPSRCTHQDLC (linker 1-7-13 via TBMB) [SEQ ID NO 74] | 2 |
| CSFPYKCTHQDLC (linker 1-7-13 via TBMB) [SEQ ID NO 94] | 22 |
| CSHRRWCTHQDLC (linker 1-7-13 via TBMB) [SEQ ID NO 113] | 41 |
| CSLFDHCTHQDLC (linker 1-7-13 via TBMB) [SEQ ID NO 112] | 40 |

Each binder was assayed against T2, human plasma Kallikrein (human, UniProt P03952 20-638, limits assumed) (assay: enzyme inhibition assay).
T2 construct: also called hPK; human PK
T2 sequence (P03952 20-638 limits assumed): as above

| Binder | Ki [nM] |
| --- | --- |
| ACGGYNNCRAFSYCA (linker 2-8-14 via TBMB, also called PK115) [1F7] | 2.2 |
| ACADPWACLFRRPCA (linker 2-8-14 via TBMB; not fully specified (N-terminus, C-terminus), also called PK113) [06-63 T] | 1280 |
| ACRWPARCLTTSLCA (linker 2-8-14 via TBMB; not fully specified (N-terminus, C-terminus), also called PK102) [06-59] | 0.5 |
| ACTWPARCTHQNWCA (linker 2-8-14 via TBMB; not fully specified (N-terminus, C-terminus), also called PK107) [06-09] | 1.2 |
| ACTWPARCTMQNWCA (linker 2-8-14 via TBMB, also called PK108) [06-A2*] | 181 |
| ACSWPYRCLHQDYCA (linker 2-8-14 via TBMB; not fully specified (N-terminus, C-terminus), also called PK109) [06-61] | 5.8 |
| ACNWPYRCLHTDLCA (linker 2-8-14 via TBMB; not fully specified (N-terminus, C-terminus), also called PK110) [06-157] | 3.3 |
| ACAWPAKCLTRELCA (linker 2-8-14 via TBMB, also called PK103) [1B1] | 8.1 |
| ACSWPARCNHQDLCA (linker 2-8-14 via TBMB; not fully specified (N-terminus, C-terminus), also called PK105) [06-57] | 0.4 |
| ACGVPYRCTHQEMCA (linker 2-8-14 via TBMB; not fully specified (N-terminus, C-terminus), also called PK111) [06-64 T] | 6.9 |

Target: T2, human plasma Kallikrein
Assay: enzyme inhibition assay
Remark: another data set of the same source

| Binder | Ki [nM] |
| --- | --- |
| Ac-CSFP[Cha]RCLHQDLC-NH2 (linker 1-7-13 via TBMB; SMILES CC(=O)N[C@H]1CSCc2cc3cc(c2)CSC[C@H](NC(=O)[C@H](CCCNC(=N)N)NC(=O)[C@H](CC2CCCCC2)NC(=O)[C@@H]2CCCN2C(=O)[C@H](Cc2ccccc2)NC(=O)[C@H](CO)NC1=O)C(=O)N[C@@H](CC(C)C)C(=O)N[C@@H](Cc1c[nH]cn1)C(=O)N[C@@H](CCC(N)=O)C(=O)N[C@@H](CC(=O)O)C(=O)N[C@@H](CC(C)C)C(=O)N[C@H](C(N)=O)CSC3) [Ac-(06-34-18) Phe2 Cha4] | 0.91 |
| Ac-CSFP[3Pal]RCLHQDLC-NH2 (linker 1-7-13 via TBMB) [Ac-(06-34-18) Phe2 3Pal4] | 2.57 |
| Ac-CS[3Pal]PYRCLHQDLC-NH2 (linker 1-7-13 via TBMB) [Ac-(06-34-18) 3Pal2 Tyr4] | 0.91 |
| Ac-CS[Cha]PYRCLHQDLC-NH2 (linker 1-7-13 via TBMB) [Ac-(06-34-18) Cha2 Tyr4] | 1.87 |
| Ac-CS[4Pal]PYRCLHQDLC-NH2 (linker 1-7-13 via TBMB) [Ac-(06-34-18) 4Pal2 Tyr4] | 3.56 |

Each binder was assayed against T1, biotinylated human plasma Kallikrein (assay: phage binding assay, signal:background).
Description: as §1
Selections against human plasma Kallikrein were performed with this library in order to study the non-WPAR (SEQ ID NO: 18) determinants of Kallikrein binding, and to isolate the optimal WPAR (SEQ ID NO: 18)-containing peptide sequence.

| Binder | Binding assay signal |
| --- | --- |
| CSWPARCTHQDLC (linker 1-7-13 via TBMB) [SEQ ID NO 73] | 110 |
| CTWPARCTHQAFC (linker 1-7-13 via TBMB) [SEQ ID NO 160] | 59 |
| CSWPARCTHAEMC (linker 1-7-13 via TBMB (inferred)) [SEQ ID NO 158] | 59 |
